The target in assay [1] is fully lipid-modified Shh secreted by human HT29 cells (human) (UniProt Q15465). As to the kind of experiment: cell-based or functional assay.
For assay [2], the target named is biotinylated-ShhN-Cys (human Shh residues 24-197, N-terminal His6-tag, biotin conjugated) (human) (UniProt Q15465). As to the kind of experiment: competition ELISA: 5E1 against immobilized Hhip1β12 for biotinylated ShhN-Cys. A general note: An ELISA detects its analyte on a solid surface through an enzyme-linked reagent.
Assay [3] concerns the target Human Ihh (residues 29-202), N-terminal His6-tag (human) (UniProt Q14623). Nature of the assay: SPR (BIAcore-2000), 5E1 IgG immobilized on CM5, Hh injected, 1:1 Langmuir fit. On the technique in general: SPR reads the build-up and loss of mass on a sensor chip optically.
Assay [4] concerns the target Shh (human Sonic hedgehog residues 25-197, N-terminal His6-tag) (human) (UniProt Q15465). The assay is described as above.
Assay [5] concerns the target Shh649 (ShhC-Cys conjugated with DyLight 649 Maleimide) (human) (UniProt Q15465). As to the kind of experiment: FACS competition: 1 nM Shh649 preincubated with 5E1, then bound to Ptch1-expressing 293 cells; the blocked partner is Ptch1.

Chain of Human Ihh (residues 29-202), N-terminal His6-tag (human) (Q14623 other isoform, or with tags, fused parts or gaps limits assumed): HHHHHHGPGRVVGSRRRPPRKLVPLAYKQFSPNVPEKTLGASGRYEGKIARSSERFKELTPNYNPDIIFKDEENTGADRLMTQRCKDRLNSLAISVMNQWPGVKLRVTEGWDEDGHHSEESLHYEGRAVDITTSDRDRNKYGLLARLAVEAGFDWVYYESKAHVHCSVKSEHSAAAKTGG

Take “Hhip1ECD (Hhip1 extracellular domain, residues 20-667), N-terminally His6-tagged (from UniProt Q96QV1 20-667) (receptor)”: the IC50, inhibition of Gli-luciferase activity in HT29/S12 co-culture in assay [1] amounted to 5.3 nM.

As to anti-Shh monoclonal antibody 5E1, the IC50 in assay [2] stood at 23 nM. In addition, the Kd in assay [3] and in assay [4] was 3 nM throughout. The IC50 (read off the curve) in assay [5] turned out to be 0.5 nM.

As a reminder, the IC50 is the concentration that inhibits the measured activity by half. Low readings indicate higher potency, high ones lower potency. In general, Kd refers to the constant that tells how readily two partners part at equilibrium. A high value points to weaker binding.

(Values after patent US20110129457A1.)
